Measured values taken from patent US20230011916A1, “METHODS OF CANCER TREATMENT USING ANTI-OX40 ANTIBODIES IN COMBINATION WITH PI3 KINASE DELTA INHIBITORS” (BEIGENE, LTD., priority 2019, published 2023).

Biological target: mouse OX40-His (Cat: ab221028, Abcam) (mouse) (UniProt P47741)
Assay: ELISA on coated mouse OX40-His

Chain of mouse OX40-His (Cat: ab221028, Abcam) (mouse) (P47741 20-211 limits assumed): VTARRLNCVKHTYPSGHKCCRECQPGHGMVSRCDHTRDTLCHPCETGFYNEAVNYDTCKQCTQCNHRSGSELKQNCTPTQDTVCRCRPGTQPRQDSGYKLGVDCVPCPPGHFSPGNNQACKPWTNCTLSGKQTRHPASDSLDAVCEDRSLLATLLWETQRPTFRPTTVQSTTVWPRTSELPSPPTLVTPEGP

EC50: 0.11 µg/mL
B1: 1A7.gr1 (antibody, from another filing, V domains shown)
VH: EVQLVQSGAEVKKPGASVKVSCKASGYTFTDSYMSWVRQAPGQGLEWIGDMYPDNGDSSYNQKFRERVTITRDTSTSTAYLELSSLRSEDTAVYYCVLAPRWYFSVWGQGTLVTVSS
VL: DIQMTQSPSSLSASVGDRVTITCRASQDISNYLNWYQQKPGKAPKLLIYYTSRLRSGVPSRFSGSGSGTDFTLTISSLQPEDFATYYCQQGHTLPPTFGQGTKVEIK
